The target of one assay is T1, 4H3497-bH.
T1 chain: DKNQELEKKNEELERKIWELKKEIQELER
As to the kind of experiment: two-hybrid library CCNG1.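 Further: natural log of median RNA to DNA barcode read ratio; higher means stronger binding.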

For the next assay, the target named is T2, 4H3628-bH.
T2 chain: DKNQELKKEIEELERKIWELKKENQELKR
The experiment in a line: two-hybrid library CCNG1.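 Further: natural log of median RNA to DNA barcode read ratio; higher means stronger binding.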

The next assay addresses T3, 4H3926-bH.
T3 chain: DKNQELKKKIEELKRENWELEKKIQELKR
The experiment in a line: two-hybrid library CCNG1.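 Further: natural log of median RNA to DNA barcode read ratio; higher means stronger binding.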

For the next assay, the target named is T4, 4H591-bH.
T4 chain: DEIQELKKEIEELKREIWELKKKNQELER
As to the kind of experiment: two-hybrid library CCNG1.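 Further: natural log of median RNA to DNA barcode read ratio; higher means stronger binding.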

The target in another assay is T5, 4H3613-bH.
T5 chain: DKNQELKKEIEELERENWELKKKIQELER
As to the kind of experiment: two-hybrid library CCNG1.

A further assay concerns the target T6, 4H626-bH.
T6 chain: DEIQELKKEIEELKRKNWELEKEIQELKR
As to the kind of experiment: two-hybrid library CCNG1.

The target of another assay is T7, 4H906-bH.
T7 chain: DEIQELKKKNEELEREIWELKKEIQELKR
As to the kind of experiment: two-hybrid library CCNG1.

A further assay deals with T8, APC9291-AA.
T8 chain: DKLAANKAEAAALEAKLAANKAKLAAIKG
The experiment in a line: two-hybrid library CCmax. The conditions noted are these: mean of both orientations.

The target in a further assay is T9, APC6088-AA.
T9 chain: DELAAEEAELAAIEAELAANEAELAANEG
As to the kind of experiment: two-hybrid library CCmax. Particulars: mean of both orientations.

The next assay concerns the target T10, APC5009-AA.
T10 chain: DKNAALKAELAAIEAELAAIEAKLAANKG
As to the kind of experiment: two-hybrid library CCmax. Particulars: mean of both orientations.

For a further assay, the target named is T11, APC9806-AA.
T11 chain: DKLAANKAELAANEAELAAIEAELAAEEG
The experiment in a line: two-hybrid library CCmax. The conditions noted are these: mean of both orientations.

The target of a further assay is T12, APC8516-AA.
T12 chain: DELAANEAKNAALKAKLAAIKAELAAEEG
As to the kind of experiment: two-hybrid library CCmax. The conditions noted are these: mean of both orientations.

For another assay, the target named is T13, APC3881-AA.
T13 chain: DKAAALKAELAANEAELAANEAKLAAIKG
As to the kind of experiment: two-hybrid library CCmax. Particulars: mean of both orientations.

The next assay deals with T14, APC8401-AA.
T14 chain: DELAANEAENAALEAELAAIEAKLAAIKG
As to the kind of experiment: two-hybrid library CCmax. The conditions noted are these: mean of both orientations.

The target in the next assay is T15, APC5531-AA.
T15 chain: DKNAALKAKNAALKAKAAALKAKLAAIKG
The experiment in a line: two-hybrid library CCmax. Particulars: mean of both orientations.

The next assay deals with T16, APC3323-AA.
T16 chain: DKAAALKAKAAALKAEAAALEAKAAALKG
As to the kind of experiment: two-hybrid library CCmax. The conditions noted are these: mean of both orientations.

The target of the next assay is T17, APC3354-AA.
T17 chain: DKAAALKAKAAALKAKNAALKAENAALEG
The experiment in a line: two-hybrid library CCmax. The conditions noted are these: mean of both orientations.

A further assay deals with T18, APC9141-AA.
T18 chain: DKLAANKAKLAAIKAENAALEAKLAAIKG
As to the kind of experiment: two-hybrid library CCmax. The conditions noted are these: mean of both orientations.

The target of a further assay is T19, APC7524-AA.
T19 chain: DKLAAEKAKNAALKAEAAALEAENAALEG
The experiment in a line: two-hybrid library CCmax. The conditions noted are these: mean of both orientations.

In the next assay the target is T20, APC4336-AA.
T20 chain: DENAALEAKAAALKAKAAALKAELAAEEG
As to the kind of experiment: two-hybrid library CCmax. Particulars: mean of both orientations.

The target in the next assay is T21, APC542-AA.
T21 chain: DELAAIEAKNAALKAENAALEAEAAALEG
The experiment in a line: two-hybrid library CCmax. Particulars: mean of both orientations.

The target in a further assay is T22, APC4100-AA.
T22 chain: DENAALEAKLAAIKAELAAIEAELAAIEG
As to the kind of experiment: two-hybrid library CCmax. The conditions noted are these: mean of both orientations.

The target of another assay is T23, APC9182-AA.
T23 chain: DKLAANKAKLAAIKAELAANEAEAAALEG
The experiment in a line: two-hybrid library CCmax. The conditions noted are these: mean of both orientations.

In another assay the target is T24, APC2981-AA.
T24 chain: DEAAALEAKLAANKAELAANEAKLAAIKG
The experiment in a line: two-hybrid library CCmax.

The next assay has as its target T25, APC3265-AA.
T25 chain: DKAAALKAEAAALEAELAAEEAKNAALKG
As to the kind of experiment: two-hybrid library CCmax. The conditions noted are these: mean of both orientations.

In the case of DKNQELEKKNEELERKIWELKKEIQELER [4H3497-bH], the interaction score with 4H3497-bH is -1.02; with 4H3628-bH it was 0.758; with 4H3926-bH, -0.573; with 4H591-bH, -1.46; with 4H3613-bH it was -0.463; with 4H626-bH, -0.895. The molecule also had an interaction score with 4H906-bH of -0.345.
For the molecule DEAAALEAKLAANKAELAANEAKLAAIKG [APC2981-AA], the interaction score is -1.74 in the assay with APC9291-AA; -1.49 with APC6088-AA; -1.75 with APC5009-AA; -1.51 with APC9806-AA; -1.73 with APC8516-AA; -1.67 in the assay with APC3881-AA. For the same molecule, the interaction score was -1.71 with APC8401-AA; -1.79 with APC5531-AA; -1.68 with APC3323-AA; -2.3 with APC3354-AA; -1.53 with APC9141-AA; -1.71 with APC7524-AA. In addition, the interaction score with APC4336-AA was -2.05; with APC542-AA, -1.62; in the assay with APC4100-AA, -1.62; in the assay with APC9182-AA, -1.76; with APC2981-AA, -1.58; with APC3265-AA it was -1.62.

These data come from paper PMC10397247.
